What was measured:
ribosome (S. cerevisiae) = assay: quantitative ribosome binding assay (ribosomes isolated from cell extract, immunoblot with αmyc); details: ribosomes isolated under low-salt conditions; parent: 45.4
[1] = biological target: ribosome (S. cerevisiae) (S. cerevisiae (endogenous in yeast extract)); assay: co-sedimentation; ribosome binding assay: cell extract (cycloheximide) spun through a low-salt sucrose cushion (25% sucrose, 20 mM Hepes/KOH pH 7.4, 120 mM potassium acetate, 2 mM magnesium acetate), 400,000 g, 4 °C, 25 min; immunoblot of supernatant and ribosomal pellet; strains: wild type, Δzuo1Δssz1, RAC-H128Q, Δssb1Δssb2 with Ssb1 variants

response (% of total mycSsb1) (ribosome (S. cerevisiae)) | ribosome-binding, percent of the mycSsb1 control [1] | Substance
3 |  | N-terminally myc-tagged Ssb1 (mycSsb1) (from UniProt P11484) K567E; R568E; K603D; R604D
 | < 50% | mycSsb1 D2 (K603D/R604D) (from UniProt P11484 1-613) (natural protein)
1.9 |  | N-terminally myc-tagged Ssb1 (mycSsb1) (from UniProt P11484) K567E; R568E; R596D; K597D; K603D; R604D
 | < 50% | mycSsb1 D1 (R596D/K597D) (from UniProt P11484 1-613) (natural protein)
 | < 50% | mycSsb1 LBC (K567E/R568E) (from UniProt P11484 1-613) (natural protein)
